Assay results as given in paper PMC3281653 (The Journal of Biological Chemistry, 2011).
Where two headings read alike, the source gives them in different places.

Key:
[1] = target: RanGAP1-SUMO1/UBC9 (human) (UniProt P46060)
[2] = target: RanGAP1-SUMO1/UBC9 (human) (UniProt P46060); remark: listed apart in the source
UBC9 = UBC9 (human, UniProt P63279); assay: crystal structure
Sequence of UBC9 (P63279 whole entry): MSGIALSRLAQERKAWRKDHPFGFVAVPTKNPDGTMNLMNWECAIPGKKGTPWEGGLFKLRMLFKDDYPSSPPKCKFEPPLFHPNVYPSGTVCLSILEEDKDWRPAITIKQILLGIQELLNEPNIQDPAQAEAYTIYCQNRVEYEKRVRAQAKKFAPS

Sequence of RanGAP1-SUMO1/UBC9 (human) (P46060 419-578, chain 1 of 3): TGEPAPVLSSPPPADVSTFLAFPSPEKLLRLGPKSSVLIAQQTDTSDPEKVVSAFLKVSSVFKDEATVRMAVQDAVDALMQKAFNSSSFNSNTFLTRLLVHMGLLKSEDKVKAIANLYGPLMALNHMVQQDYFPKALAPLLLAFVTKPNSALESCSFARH
Sequence of RanGAP1-SUMO1/UBC9 (human) (P63165 18-97, chain 2 of 3, further chain): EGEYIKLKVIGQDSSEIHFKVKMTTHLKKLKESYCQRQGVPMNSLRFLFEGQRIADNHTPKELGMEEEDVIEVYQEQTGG
Sequence of RanGAP1-SUMO1/UBC9 (human) (P63279 whole entry, chain 3 of 3, further chain): as the sequence (P63279 whole entry) above

Work on “IR1-M-IR2 (RanBP2 residues 2631–2771) (from UniProt P49792 2631-2771) (domain or fragment)” yielded a protease protection from SENP1: protection of RanGAP1-SUMO1 against that by IR1 [1] of 16 fold.

IR2SIM-IR1_(II–V) (domain or fragment) gave a protease protection from SENP1: protection of RanGAP1-SUMO1 against that by IR1 [2] of 144 fold.

B1: IR1 (RanBP2 residues 2631–2695) (domain or fragment)
chain: DVLIVYELTPTAEQKALATKLKLPPTFFCYKNRPDYVSEEEEDDEDFETAVKKLNGKLYLDGSEK
B1: binds (UBC9).
